Where two headings read alike, the source gives them in different places.
What was measured:
[1] = target: human 20S proteasome (human) (UniProt P60900)
[2] = target: biotinylated human 20S proteasome (human) (UniProt P60900); assay: BLI

| Substance | EC50 of stimulation of h20S activity [1] | Kd [2] | koff [2] | other results |
| --- | --- | --- | --- | --- |
| PA26^AY | 8.3 nM | – | – | – |
| PA26^AY (from UniProt Q9U8G2) | – | 0.28 nM | 0.0004 s⁻¹ | – |
| PA26^E102A (disabled-loop mutant) (from UniProt Q9U8G2) | – | – | – | Kd ([2]; natural protein): > 100 nM |
| PA26^YA | > 3000 nM | – | – | stimulation of h20S activity, loss against PA26^YY [1]: 80 % reduction |
| PA26^YA (from UniProt Q9U8G2) | – | 36 nM | 0.011 s⁻¹ | – |
